Consider 18 sequences from a protein production outcome set (Wang et al. 2014).

A short description of the data set: label from the status in PepcDB records.
For “MALDEAPAEARPGSRAVELEIDGRSRIFDIDDPDLPKWIDEEAFRSDDYPYKKKLDREEYEETLTKLQIELVKVQFWMQATGKRVMAVFEGRDAAGKGGAIHATTANMNPRSARVVALTKPTETERGQWYFQRYVATFPTAGEFVLFDRSWYNRAGVEPVMGFCTPDQYEQFLKEAPRFEEMIANEGIHLFKFWINIGREMQLKRFHDRRHDPLKIWKLSPMDIAALSKWDDYTGKRDRMLKETHTEHGPWAVIRGNDKRRSRINVIRHMLTKLDYDGKDEAAIGEVDEKILGSGPGFLR”, the protein production entry is “not failed”.
Consider “MSSSSDAPLVATRWVEIGLALFTAALGAIVMYGSQDIGIGWGDSGPEAGYFPFYIGLLLSAASLGNLLLALCRWRALGTSFVARTAFRRVLAVFLPIAAYVAAMPFAGIYLASALFIAWFMWRDRSRDKPYGVPLIVTLSCGAALASYLVFAVWFKVPLDAGILVDLAAFVGSARP”, for which the protein production entry is recorded as “failed”.
The value for “MTYMNNEVTTKASKQRLEVHKPRPIFFETLTITQIQIFMQSYSRLMQFKVKDLMIDKRRLVEVPDNATLGDALNTMTILGIKPVANRVRAVPVAAKPGQWLGAGGSMIVELDKQSGSARKQYIGMVTMLDVVAHIAGDDGESGLDKKMAAPVSSIIGHCPEGLSLWSLNPNTSIMDCMEMLSKGIHRVLVPLDSNTENITGPELVESASAYAMLSQMDLISFFFDQSSQLHGILSHTVTDLSAIHNTVLALTSQARVKDAIQCMSIAMLNAVPIVEASGEGEDHKQLVDGKNRRVVGTFSASDLKGCHLATLRSWLPLNALEFVEKIPRTLLFTAATSTPGRELVTCHVTSTLAQVIHMVTTKRVHRVWVVDQNGGLQGLVSLTDIIAVVRSALLSGAPDLF” was “failed”.
Take “MSVDPKLIRQKIQRLDAGARPRVLDLFSGCGGISLGFQSAGFEIVAAVENDPDAARSHGLNFHHGEDRHSIPRNITVTSPAALATALGLGAAASAFDVIVGGPPCQAFARVGRSKLREIAEHPEAFRHDSRARLYIEYLAYVEACAPLAVVIENVPDMLNHGGHNLAAEIGEILASKDYVVRYTLLNAAFYGVPQMRERMILIAIRKELADDVEFPAPTHWIDLPSGYQGSRAVALKLATGRDLLTEATGGSAYKAAPEAVETLAPAVSTQQAIGDLPEIMARELLAEGALRRGTRRLDAMLPYGGHNQQNDYVKEMRTWPGFEGSSHVRDHVIRYLPRDYRIFAGLKPGDQYPEAHRYALSLFEAELERLHAQGKRPEDGSSEWDALKAAFVPPYDAGKFPNKWRKMEATTPARTLLAHLGKDGYSHIHYDSRQARPISVREAARLQSFPDGFRFAGTMNPAFRQIGNAVPPLLARAIAQTLRSQLVRGVATEDLPRVAGAGR”: the protein production entry is on record as “failed”.
Consider “MPDNFLIVPSADVQGGRLTTLSNAISTTDLNLTVTGLSNDTELVVYQLSTGVIGTPQAAAQPRETHVFALMGQSNMIGRAAFDGGAKWPDGTLQIGRGGDEDGAIIPARNPADGPATSRPLAHTGARLGNMGLDIQFAIDYLSDKPDVTLLFIPCAQGATGFSNGAWNPGDWLYNRETARINAAMNANPEFLFQGFLWHQGETDTGIPGTYGGLLDNLIAGLRRDVTAATPTTPFILGGLAAGNAGRDAITGIIAATPGRVPYTAFAPTADLSLTDANHFDAASFRTLGARYAAALASAAANQPGAPGIPTGLSAVAGDTEVTLSWSAPANTGGTALSDYIIERDSGSGFAALADGTGTTTGYTDSGLSNGTTYAYRVRAVNGTGTGAATPPQSATPAAPATGPVAEAGAQAHWLFGADNPTYADLVSGRIATGPAHALEAAYMTSPAGIRQGRDTGIAEADAQTMCFVFQLAGSANSMIGGTLTTSGSNGVSPYTSATTGIYANMRGGWGNPAISSASPYRTQFVFAAVSKNVATGNYVLFAGNGAGHDVLTGTSAQTTSPRTIGIGNLHFDRANFSGQISIAEAILFDSAKTEIELTEIYDRSRTRLAARGLTVV”, for which the protein production entry is given as “failed”.
Turning to “MKVVPEKNAVRILWGRERGTRAMGAQRLLQELVEDKTRWMKWEGKRVELPDSPRSTFLLAFSPDRTLLASTHVNHNIYITEVKTGKCVHSLIGHRRTPWCVTFHPTISGLIASGCLDGEVRIWDLHGGSESWFTDSNNAIASLAFHPTAQLLLIATANEIHFWDWSRREPFAVVKTASEMERVRLVRFDPLGHYLLTAIVNPSNQQGDDEPEIPIDGTELSHYRQRALLQSQPVRRTPLLHNFLHMLSSRSSGIQVGEQSTVQDSATPSPPPPPPQPSTERPRTSAYIRLRQRVSYPTTVECCQHPGILCLCSRCAGTRVPSLLPHQDSVPPASARATTPSFSFVQTEPFHPPEQASSTQQDQGLLNRPSAFSTVQSSTAGNTLRNLSLGPTRRSLGGPLSSHPSRYHRELAPGLTGSEWTRTVLTLNSRSEVESMPPPRTSASSVSLLSVLRQQEGGSQASVYTSATEGRGFPSSGLATESDGGNGSSQNNSGNIRHELQCDLRRFFLEYDRLQELDQSLSGETPQTQQAQEMLNNNIESERPGPSHQPTPHSSENNSNLSRGHLNRCRACHNLLTFNNDTLRWERTTPNYSSGEASSSWHVSTTFEGMPPSGNQLPPLERTEGQMPNSSRLELSSSASSQEERTVGVAFNQETGHWERIYTQSSRSGTVSQEALHQDMPEESSEEDSLRRRLLESSLISLSRYDGAGSREHPIYPDPARLSPAAYYAQRMIQYLSRRDSIRQRSMRYQQNRLRSSTSSSSSDNQGPSVEGTDLEFEDFEDNGDRSRHRAPRNARMSAPSLGRFVPRRFLLPEYLPYAGIFHERGQPGLATHSSVNRVLAGAVIGDGQSAVASNIANTTYRLQWWDFTKFDLPEISNASVNVLVQNCKIYNDASCDISADGQLLAAFIPSSQRGFPDEGILAVYSLAPHNLGEMLYTKRFGKG”, the protein production entry is given as “failed”.
The value for “MQHESPIIRRKSTRIYVGDVPIGDGAPIAVQSMTNTRTTDVEATVAQIRALEKVGADIVRVSVPTMEAAEAFKLIKQQVSVPLVADIHFDYRIALKVAEYGVDCLRINPGNIGNEERIRSVVDCARDKNIPIRIGVNGGSLEKDLQMKYGEPTPEALVESAMRHVDHLDRLNFDQFKVSVKASDVFLAVDSYRLLAKKIDQPLHLGITEAGGARAGAVKSAVGLGMLLSEGIGDTLRISLAADPVEEIKVGFDILKSLRIRSRGINFIACPSCSRQEFDVIGTVNALEQRLEDIITPMDVSIIGCVVNGPGEAEVSHLGLAGSNKKSAFYEDGKRQKERFDNNDLVNQLEAKIRAKASMMDSENRIEIKVQD” was “failed”.
For the sequence “MMVETATVVQYQNGKALVRCSVKTACGNCGAKADCGTQLLSSLVKERVPHFELSVNMPLVAGDMVKIGLPEQTLLWSIFWIYVVPLMVLIGSAVGFTQLFANELVVVFMMFICTSMTFFSIKKIIDKKQLSQLNPIFLGRVE”, the protein production entry was “failed”.
For the sequence “MAEASIQIEVVYATVQRQVLMTVDVPAGSSVRQALALCGMDREFPELDLSHCPVGIFGKVVADPAARVLEAGERIEIYRPLLADPMEIRRLRAAKAREKRTLPG”, the protein production entry is recorded as “failed”.
Consider “MSSLLPEKWGEALERVHDKVGHFLTRVMPWKKQEHFPERITADTLPAFMQSGGPLLDMHETADELIIRAEVPGLKNDDFSVGIVGRRLTIKGEKNIVRERKGGDGCLISECRYGSFARTLQLPYEIDEKAIAADLKHGVLTIRLPKPEKGRHARYRVPIS”, for which the protein production result is given as “failed”.
In the case of “NFNPPTRRNWESNYFGMPLQDLVTAEKPIPLFVEKCVEFIEDTGLCTERLYRVSGNKTDQENIQKQFVQDHNINLVSMEVTVNAVAGALKAFFADLPDPLIPYSLHPELLEAAKIPDKTERLHALKEIVKKFHPVNYDVFRYVITHLNRVSQQHKINLMTADNLSICFGQPLMRPDLKSMEFLSTTKIHQSVVETFIQQCQFFFYNGEIVETTNIVAPPPPSNPG”, the protein production result is “failed”.
The entry for “MSIKVEDYFAPETFQRMKAFADKQETPFVVIDKQTIADAYDQLTDCFPFARIYYAVKANPATEITELLRDKGSNFDIASIYELDKVMKTGVGPERISYGNTIKKSKDIRYFYEKGVRLFATDSEADLRNIAKAAPGAKVYVRILTEGSTTADWPLSRKFGCQTDMAMDLLILARQLGLEPYGISFHVGSQQRDISVWDAAIAKVKVIFERLKEEDGIVLKMINMGGGFPANYITKTNDLETYAEEIIRFLKEDFGDDLPEIILEPGRSLIANAGILVSEVVLVARKSRTAVERWVYADVGKFSGLIETMDESIKFPIWTEKQGEMEEVVIAGPTCDSADIMYEHYKYGLPLNLASGDRLYWLSTGAYTTSYSAVEFNGFPPLKAFYL” is “failed”; for “MEQLVSMGFSSDLAAEALTATGGDSIQKATDWILSHRSSPQSTATLQPKLDRFLRLHPKALAPAMGDDSSKRPNPKTQIHVAADDSNKRHKLSSSSHRQHQPLSERMRPRTLDDVVGQDHLLSPSSLLRSAVESNRLPSIVFWGPPGTGKTSIAKSLINSSKDPSLYRFVSLSAVTSGVKDVRDAVESAKRLNLEGRKRTVLFMDEVHRFNKSQQDTFLPVIEDGSILFIGATTENPSFHLITPLLSRCRVLTLNPLKPNHVETLLRRAVDDSERGLPNSVEVDDSVIEFLANNCDGDARVALNALEISATMATTRAGTDAVVSIDDAKEALQCKHLAYDKAGEQHYNLISALHKSMRGGDANAAIYWLARMLEGGEEPLYIARRLIRFASEDIGLADPSALTQAVACYQASHFLGMPECNVILAQCTAYLALAPKSIAVYRAIGAAQKVVKDSVGQNEGVPLHLRNAPTKLMKELGYGKEYIYPPSDPSSAAGQTYLPPSLLHHKFLEWPEGASGDFQDQEHRL” it is “failed”.
In the case of “MSNYTESLQYLDSYISARVPVIGMRTIEQQRALRLLREAATQPRRSSMPFWIYTRATGLRDLRTNAPVQDDRSLTGAMDFAAAQFTSRANATVVFVDPDDLGGDTPITRHIAELARLADSNMGSIVLITDTPIWSGLQRLGMSLHLDLPDADEMYGILSGFLGDHHGHIPIEWDEADGRRAAEFLLGVTEAECINLMATIAAKGSIQKADVLGLAQAKDRIFSDLTGLERVQLKEADYTVGGLSSLREWLQRKHWQLHEDLRDSALRPPRGVLLVGVPGCGKSLSAKAIAHEWQLPLYRLDMGAIHGKYLGESEGRFREALAMADRVAPCVLWIDEIEKGLAGRDDGSGVPQRIIGQFLFWLQESQSRAFVVATANDIRSLPPELLRKGRFDELFFVDLPDAQDRKEIIELYYQRYLQGEPDRDQVDQLVDLSEGFAGSDIESALHDVGLEARRIGGADGLKASFLRDTFANTVPMSRVNPEQIEEIRAWGRERALPAGRSTVSAAPGGAKPSRRIVFMDD”, the protein production result is reported as “failed”.
Consider “MDLENNNNTPLTGKQAEKCAKKRKCVITLDEKQVESKRLKKEESNVEATSRPPAQSPKKRLHLNGKPMQNKDLNFKYGNYKHYYGKRILNKDFHDIRLDVLGTQPDLFRNKQLLDIGCNSGHLSIQIARKFEVKSLVGLDIDRGLINDAQKTVSHLKRHATPGQGIPHIQFVHGNYVLEDDVLLEIERPQFDVILCLSVTKWIHLNFCDSGLKQAFRRMYLQLRPGGKLILEPQSFDGYKRRKKLSEQIRDNYNAIKFRPDHFTEYLLSPEVGFAEMKLMGIPEHCKVGFKRPIQIFTKS”, for which the protein production entry is “failed”.
As to “IDFRPYGGFIFDMDGTLIDTMPAHLAAWQATADRFDFPFCQEWLHSLGGMPSFKIVAELNRHYGLSLDPQTVSKFKMETFAAMELQGDVIQCTGIVLEEYLGQKKIAVGTGSQRESAMRLLSHAGLIDRLDAVVTASDVENHKPCPDTFLLAADRLGIDAQNCLVFEDTELGKRAAHSAGMDCVMVEGNNLV”, the protein production entry is “failed”.
The entry for “GVQKVDKARKQITVAGGTRINEVGKTLKQHGLSLINQGDIDSQAVAGAFTTGTHGTGIKLGNMASSIAGMRIVKANGEILDIDGSDEELLHAAQVSVGTLGIISSMTLNVMDA” is “failed”.
For the sequence “MQPFLFSDSSACLHVSPAMKISVIIPVYNDPSGIDATLRSVMEQDHSDYEVIPVDNNSTDRTPAVIREWAHQYPNRIRPASEHDTQSSYAARNAGIEAAQGEILVFIDADMAAPSYWLTDVHEAFSASEADYLGYEVDVYVPEDEAGFWGWYDTVMGLPSRYHYDEKQFVPTSCLAVRRAVFEKVGRFDETAVSGGDKEFGERVHRHPDLTTAFRDDIVVCHPARTTFEAHRAKALRVGRGLARLCDPSTASGDTTSVLIELLLHAVPPDPRRVAEQAHDVPAHQFLRLYIADWILRYLRLYGALTYCRKEAPE”, the protein production entry is on record as “failed”.
